Results on 41 sequences are retold here after the nanobody polyreactivity screen of Harvey et al. (2022).

The series can be described thus: yeast display, Sf9 membrane polyspecificity reagent, FACS + sequencing; frameworks hold sequencing errors. In a few lines:
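After 36–48 hours of galactose induction, yeast (Saccharomyces cerevisiae BJ5465) displaying a synthetic nanobody library were stained at 4 °C for 1 hour with 10% biotinylated, detergent-solubilized Sf9 membrane reagent. Streptavidin microbeads enriched the stained cells before FACS sorting into low and high (top ~1%) gates on anti-HA and streptavidin fluorescence. Each clone's polyreactivity label reflects its gate of origin.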
On to “QVQLVESGGGLDQEGGSLRLSCAASGRIFARNAMGWYRQAPGKERELVAAIRNSDGSTYYADSVKGRFTISRDNAKNTVYLQMNSLKPEDTAVYYCAARSGSYRKYGYWGQGTQVTLSS”, for which the “polyreactivity (PSR sort gate)” value is recorded as “high polyreactivity”.

For the sequence “QVQLVESGGGLDQPGGSLRLSCAASGRIFRTYAMGWYRQAPGKQRELVAAINSVHRTYYADSVKGRFTITRDNAKNTVNLQMYCQKPEDSAVYYCNARYVLKVSQYGYWGQGTQVTVSS”, the “polyreactivity (PSR sort gate)” value is recorded as “high polyreactivity”.

In the case of “QVQLVESGGGLDQSGGSLSLSCAASGSNFRLNAMGWSRQAPGKETELVAAISYRGGSTNYADSVKGRFTISRDNAKNTVYLQMNILKPEDTAVYYCAANIYRSSGQCMDYWGQGTEVTVSS”, the “polyreactivity (PSR sort gate)” value was “low polyreactivity”.

As for “QVQLVESGGGLEQAGGSLRISCAASGITFRWYAMGWYRQAPGKERELVAAISERGGSTYYADSVKGRFTISRDNAKNTVYLQMNSLKPEDTAVYYCAADSQHWQRWHGYWGQGTEVTVSS”, the “polyreactivity (PSR sort gate)” value is recorded as “high polyreactivity”.

As for “QVQLVESGGGLEQAGGSLRLSCAASGGTFARYVMGWYRQAPGKERELVAAITSGGRTYYADSVKGRFTISRDNAKNTVYLQMNSLKPEDTAVYYCATAPRRRATSYYYWGQGTQVTVSS”, the “polyreactivity (PSR sort gate)” value is reported as “high polyreactivity”.

Consider “QVQLVESGGGLFQAGGILRLSCAASGFTFERNDMGWYRQAPGKERELVATISQSGTNTYYADSVKGRFTISRDNAKNTVYVQMNSMKPEDTAVYYCNARYIFYRYDYWGHGTQVTVSS”, for which the “polyreactivity (PSR sort gate)” value is reported as “low polyreactivity”.

Regarding “QVQLVESGGGLFQAGGRLRLSCASSGYTFDYYTMAWYRQAPGKERELVARITASGGSTYYADSVKGRFTISRDNAKNTVYLQMNSLKPEDTAVYYCAADYWWYTGYDYWGQGTQVTVSS”, the “polyreactivity (PSR sort gate)” value is reported as “high polyreactivity”.

“QVQLVESGGGLFQAGGSLRISCAASGFIFSFYAMGWYRQAPGKERELVAAITSSGATTYYADSVKGSFTISRDNAKNTVYLQMNSLKPEDTAVYYCNAVYRRDTGYYRYYYWGQGTQVTVSS”: the “polyreactivity (PSR sort gate)” value is listed as “high polyreactivity”.

For the sequence “QVQLVESGGGLFQAGGSLRISCAASGSIFRSYAMGWYRQAPGKERELVASISRRGGSTYYADSVKGRFTISRDNAKNTVYLQMNSLKPEDTAVYYCAAVRYNSRVSTTPSEMYYWGQGTQVTVSS”, the “polyreactivity (PSR sort gate)” value is recorded as “low polyreactivity”.

On to “QVQLVESGGGLFQAGGSLRISCAASGSTFRGYVMGWYRQAPGKERELVAAISRSGTSTYYADSVKGRFTISRDNAKNTVYLQMNSLKPEDTAVYYCAAQLYGHGEDYWGQGTQVTVSS”, for which the “polyreactivity (PSR sort gate)” value is recorded as “high polyreactivity”.

Turning to “QVQLVESGGGLFQAGGSLRLICAASGNIFKSYTMGWYRQAPGKERELVAAITSGGRTNYADSVKGRFTISRDNAKNTVYLQMNSLKPEDTAVYYCNAYKVFWVSIRYKFDYWGQGTQVTVSS”, the “polyreactivity (PSR sort gate)” value was “high polyreactivity”.

On to “QVQLVESGGGLFQAGGSLRLICAASGSTFLNNAMGWYRQAPGKERELVAAISYRGGSTYYADSVKGRFTISRDNAKNTVYLQMNSLKPEDTAVYYCAAEVTRFWWRSPYDYNYWGQGTQVTVSS”, for which the “polyreactivity (PSR sort gate)” value was “high polyreactivity”.

In the case of “QVQLVESGGGLFQAGGSLRLSCAASATTFGVNAMGLYRQATGKERELVAAITVSAGSTYYADSVKGRFTISRDNAQNTVYLQMNSMKPEDSAVYYCAAEEREWRTDIYDYWGQGTQVTVSS”, the “polyreactivity (PSR sort gate)” value is listed as “low polyreactivity”.

For “QVQLVESGGGLFQAGGSLRLSCAASGFIFAWYAMGWSRQAPGKERELVATISSSGARTYYADSVKGRFTISRDNAKNTVYLQLNRLKPEDTAVYYCASVYSTLGVGYYYWGQGTQVTVSS”, the “polyreactivity (PSR sort gate)” value is “high polyreactivity”.

Take “QVQLVESGGGLFQAGGSLRLSCAASGFIFRPYGMGWYRQAPGKERELVAAISWSGDRTYYADSVKGRFTISRDNAKNTVYLQMNSLKPEDTAVYYCAADGVTRDYDYWGQGNQVTVSS”: the “polyreactivity (PSR sort gate)” value is reported as “low polyreactivity”.

On to “QVQLVESGGGLFQAGGSLRLSCAASGFIFYDNAIGWYRQAPGKERELVASISVSGGSTYYADSVKGRFTISRDKAKNTVYLHMNSLKAEDTAVYYCAASYRDGHIRHDYWGQGTQVTVSS”, for which the “polyreactivity (PSR sort gate)” value is reported as “low polyreactivity”.

On to “QVQLVESGGGLFQAGGSLRLSCAASGFISSGNTMAWYRQAPGKERELVAAISGSGGRTYYADSVKGRFTISRDNAKNTVYLQMNSLKPEDTAVYYCATPLQQLYGYWGQGTQVTVSS”, for which the “polyreactivity (PSR sort gate)” value is “low polyreactivity”.

In the case of “QVQLVESGGGLFQAGGSLRLSCAASGFIVRRYAMGWYRQAPGKEREMVAAITSGGGRTYYADSVKGRYTISRDNAKYTVNLEMISLKPEDTGVYDCARVQRCDYDYWGQGTQVTVSS”, the “polyreactivity (PSR sort gate)” value is listed as “high polyreactivity”.

Consider “QVQLVESGGGLFQAGGSLRLSCAASGFTFPAYNMGWYRQAPRKEMEMVAAITSSGGNTYYADSVKGRFTISRHNAKNTVYLQMNSLKPEDTAVYYWATFSVRWPSNDHVRYDYWGHGTQVTVSS”, for which the “polyreactivity (PSR sort gate)” value was “low polyreactivity”.

For “QVQLVESGGGLFQAGGSLRLSCAASGIIFVRNAMGWSRQAPGKERELVAAITPSGGSTYYADSVKGRFTISRDNAKNTVYLQMNSLKPEDTAVYYCAAPYRYRSLYDNWGQGSQVTVSS”, the “polyreactivity (PSR sort gate)” value was “high polyreactivity”.

“QVQLVESGGGLFQAGGSLRLSCAASGITFAQYAMGWYRQAPGKDRELVAVISSGGSTNYADSVKGRFTISRDNAKNTVYLQMNSMKPEDTAVYYCNADEAAPVYSYYYWGQGTQVTVSS”: the “polyreactivity (PSR sort gate)” value was “low polyreactivity”.

Consider “QVQLVESGGGLFQAGGSLRLSCAASGITFTRYAMGWYRQAPGKEREFVAAIRRSGGNTYYADSVKGRFTISRDNAKNTVYLQMNSLNPEDTAVYYCAASLRKTSPTRLVDYWGQGTQVTVSS”, for which the “polyreactivity (PSR sort gate)” value is recorded as “low polyreactivity”.

As for “QVQLVESGGGLFQAGGSLRLSCAASGITLAYNAMGWYRQAPGKEREFVAAIDVSGGRTYYADSVKVRFTISRDKSKNTVNLQMNSLNPEDTAVYYCAADVAEFSVGYWQDYDYWGQGTQVTVSS”, the “polyreactivity (PSR sort gate)” value is “low polyreactivity”.

In the case of “QVQLVESGGGLFQAGGSLRLSCAASGLTFYVYAMGWYRQAPGKERELVAAITQNGGTTYYADSVKGRFTISRDNAKNTVYLQMNSLKPEDTAVYYCAAGNRSLGGRLYRYYYWGQGTLVTVSS”, the “polyreactivity (PSR sort gate)” value is “high polyreactivity”.

For the sequence “QVQLVESGGGLFQAGGSLRLSCAASGNIFVDYDMGWYRQAPGKERELDATITGTGDSTTYADSVKGRFTISRDIAKNTVYLQMNSLKPEDTAVYYCNTDLRLVYRTKGFISWGYDYWGQGTQVTVSS”, the “polyreactivity (PSR sort gate)” value was “low polyreactivity”.

“QVQLVESGGGLFQAGGSLRLSCAASGRIFSYNNMGWYRQAPGKERELVAAISTSGGSTYYADSVKGRFTLSRDNAKNTVYLQMNSLKPEDTAVYYCNTVWTFRTSTNYDYWGQVTQVTVSS”: the “polyreactivity (PSR sort gate)” value is on record as “low polyreactivity”.

With “QVQLVESGGGLFQAGGSLRLSCAASGRIYPTYTMGWYRQAPGKERQLVAAINRGGGSTYYADSVKGRFTISRDYAKNTVYLQMICLKPEDTAVYYCNARTYYRSYGYDYWGQGTQVTVSS”, the “polyreactivity (PSR sort gate)” value is recorded as “low polyreactivity”.

For the sequence “QVQLVESGGGLFQAGGSLRLSCAASGRTFQVNAMAWYRHAPGKERELVAAISASDGSTYADSVKGRFTISRDNAKNTVYLQMNSLKPEDTAVYYCNKADYGGHRTSEQVGWVYLYDYWGQGTQVTVSS”, the “polyreactivity (PSR sort gate)” value was “low polyreactivity”.

Consider “QVQLVESGGGLFQAGGSLRLSCAASGRTFVKYDMGWYRHAPGKERELVAAISRRGGSTYYADSVKGRFTISRDNAKNTVYLQMNSLKPEDTAVYYCNAVHPKDVDSYRDRDYWGQGTQVTVSS”, for which the “polyreactivity (PSR sort gate)” value is “high polyreactivity”.

As for “QVQLVESGGGLFQAGGSLRLSCAASGSIFTKYAMGWYRQAPGKERELVAAISQGGASTRYADSVKGRFTISRDNAKKTVYLQMNSLKPEDTAVYYCAAKSRHFWMDYWGQATQVTVSS”, the “polyreactivity (PSR sort gate)” value is “high polyreactivity”.

For the sequence “QVQLVESGGGLFQAGGSLRLSCAASGSIFWPNTMGWYRQAPGKERELVATISSGGDTSYADSVKGRFTISRDNEKNTVYLQMNSLKPEDTAVYYLAKSITVDDVHPRALTYNYWGQGTQVTVSS”, the “polyreactivity (PSR sort gate)” value is “low polyreactivity”.

Take “QVQLVESGGGLFQAGGSLRLSCAASGSTFGWYGMGWYRHAPGKERELVAAISLSDGGTYYADSVKGRFTISRDNAKNTVYLQMNSLKPEDTAVYYCAADYYDSGWYGYWGQGTQVTVSS”: the “polyreactivity (PSR sort gate)” value is on record as “high polyreactivity”.

Regarding “QVQLVESGGGLFQAGGSLRLSCAASGSTFHYNNMGWYRQAPGKERELVAAISWLGDPTYYADSVKGRFTISRDNAKNTVYLQMNSLKPEDTSVYFCNAVRLSRYRPNPFGYGHWGQGTQVTVSS”, the “polyreactivity (PSR sort gate)” value was “high polyreactivity”.

For the sequence “QVQLVESGGGLFQAGGSLRLSCAASGSTFVKYAMGRSRPAPAKERELVAAINRSGASTYYADSVKGRFTISRDNATNTVNLQMISLKPEDTAVYYCAARFSWLGYYWGQGTQETVSS”, the “polyreactivity (PSR sort gate)” value is recorded as “high polyreactivity”.

With “QVQLVESGGGLFQAGGSLRLSCAASGSTLGSNAMGWYRQAPGKERELVAAITWSGGTTYYADSLKGRFTISRDNAKNTVYLQMNSLKPEDTAVYYCAPGQSVIYRYEFWGQGTQVTVSS”, the “polyreactivity (PSR sort gate)” value is listed as “low polyreactivity”.

Take “QVQLVESGGGLFQAGGSLRLSCAASGSTLRDYVMGWYRQAPGKERELVAAISWTGDRTYYADSVKGRFTISRDNAKNTVYLQMNSLKPEDTAVYYCNAVYHVTRQGNLDSWGQGTQVTVSS”: the “polyreactivity (PSR sort gate)” value was “low polyreactivity”.

Regarding “QVQLVESGGGLFQAGGSLRLSCAASVITFSQYVMGWYRQAPGKERELVAAISYRGGTTYYADSVKGRFTISRDNAKNTVYLQMISLKPEDTAVYYCATLPQRQYSTRDYWGQGTQVTVSA”, the “polyreactivity (PSR sort gate)” value is “high polyreactivity”.

On to “QVQLVESGGGLFQAGGSLRLSCAPSGFTFSWYDMGWYRQAPGKERELVAAISLSGDRTYYADSVKGRFTISRDNAKNTVYLQMNSLKPEDTAVYYCAADERVDQCWIRMDYWGQGTQVTVSS”, for which the “polyreactivity (PSR sort gate)” value is “low polyreactivity”.

Turning to “QVQLVESGGGLFQAGGSLRLSCAPSGIFRYYVMGWYIQAPGKERELVAAISWGGGSTYYADSVKGRFTISRDNPKNTVYLQMNSLKPEDTAVYYCAARDLRKLYSRYPYYYWGQGTQVTVSS”, the “polyreactivity (PSR sort gate)” value is “high polyreactivity”.

For the sequence “QVQLVESGGGLFQAGGSLRLSCAPSGNNFYGNDMGWYRQAPGKERDLVAAISRGGSTYYADSVKGRFTSSRDNAMNTVYLQMNSLKPEDSEVFYCAADYAYTTISWDDYWGQGTLVTVSS”, the “polyreactivity (PSR sort gate)” value was “low polyreactivity”.

Turning to “QVQLVESGGGLFQAGGSLRLSCASSGFIFVRYAMGWYIQAPGKERELVAGINSGGSTSYADSVKGRFTISRDNAKNSVYLQMNSLKPEDTAVYYCAAAKFRRGTRYYYCGQGTQVTVSS”, the “polyreactivity (PSR sort gate)” value is listed as “high polyreactivity”.
